Changes are numbered by the printed parent chain. Names may count otherwise.
B1: 15H7 IgG (antibody, V domains shown)
VH: QVQLVQSGAEVKKPGASVKVSCKASGYTFTSYYMHWVRQAPGQGLEWMGIINPSGGSTSYAQKFQGRVTMTRDTSTSTVYMELSSLRSEDTAVYYCARNYYLFSTSFDYWGQGTLVTVSS
VL: QAVVTQEPSLTVSPGGTVTLTCGSSTGAVTTSNYANWVQEKPGQAFRGLIGGTNKRAPGTPARFSGSLLGGKAALTLSGAQPEDEAEYYCALWYSNLWVFGGGTKLTVL
notes: human IgG1
B2: 18D3 IgG (antibody, V domains shown)
VH: QVQLVQSGAEVKKPGASVKVSCKASGYTFTSYYMHWVRQAPGQGLEWMGIINPSGGSTSYAQKFQGRVTMTRDTSTSTVYMELSSLRSEDTAVYYCARNYYTGGSSAFDYWGQGTLVTVS
VL: B1 VL
notes: human IgG1
B3: 16A3 IgG (antibody, V domains shown)
VH: B1 VH with L102A, F103G, S104V, S106P
VL: B1 VL
notes: human IgG1
B4: 21D1 IgG (antibody, V domains shown)
VH: B1 VH with L102V, F103G, S104V, T105S, S106P
VL: B1 VL
notes: human IgG1
B5: 16D5 IgG variant S35H/wt (HC/LC) (antibody, V domains shown)
VH: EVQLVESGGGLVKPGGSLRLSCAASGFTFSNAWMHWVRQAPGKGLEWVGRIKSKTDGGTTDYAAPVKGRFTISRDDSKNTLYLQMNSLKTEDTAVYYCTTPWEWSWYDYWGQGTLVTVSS
VL: B1 VL
notes: IgG
B6: 16D5 IgG variant W96Y/wt (HC/LC) (antibody, V domains shown)
VH: not shown
VL: B1 VL
notes: IgG
B7: 16D5 IgG variant R50S/K53A (HC/LC) (antibody, V domains shown)
VH: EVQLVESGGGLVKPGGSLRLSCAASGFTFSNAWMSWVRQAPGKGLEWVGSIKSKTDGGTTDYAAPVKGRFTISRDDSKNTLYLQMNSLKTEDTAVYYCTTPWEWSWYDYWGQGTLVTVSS
VL: B1 VL with A2T, E40Q, F46P, K55A, A80V
notes: IgG
B8: 16D5 IgG variant G49S/K53A (HC/LC) (antibody, V domains shown)
VH: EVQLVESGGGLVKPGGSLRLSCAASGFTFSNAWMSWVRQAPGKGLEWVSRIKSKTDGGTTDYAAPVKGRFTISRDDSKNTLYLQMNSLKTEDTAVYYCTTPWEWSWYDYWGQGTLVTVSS
VL: B1 VL with A2T, E40Q, F46P, K55A, A80V
notes: IgG
B9: 16D5 IgG variant W96Y/S93A (HC/LC) (antibody, V domains shown)
VH: not shown
VL: B1 VL with A2T, E40Q, F46P, A80V, S95A
notes: IgG
B10: 16D5 IgG variant R50S/S93A (HC/LC) (antibody, V domains shown)
VH: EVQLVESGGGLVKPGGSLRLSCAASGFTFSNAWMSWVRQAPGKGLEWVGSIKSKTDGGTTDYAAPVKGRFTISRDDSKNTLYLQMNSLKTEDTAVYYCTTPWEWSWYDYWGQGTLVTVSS
VL: B1 VL with A2T, E40Q, F46P, A80V, S95A
notes: IgG
B11: 16D5 IgG variant S35H/S93A (HC/LC) (antibody, V domains shown)
VH: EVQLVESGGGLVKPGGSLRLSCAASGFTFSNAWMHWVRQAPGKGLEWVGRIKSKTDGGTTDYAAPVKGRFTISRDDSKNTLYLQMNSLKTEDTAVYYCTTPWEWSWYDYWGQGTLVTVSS
VL: B1 VL with A2T, E40Q, F46P, A80V, S95A
notes: IgG
B12: 16D5 IgG variant G49S/S93A (HC/LC) (antibody, V domains shown)
VH: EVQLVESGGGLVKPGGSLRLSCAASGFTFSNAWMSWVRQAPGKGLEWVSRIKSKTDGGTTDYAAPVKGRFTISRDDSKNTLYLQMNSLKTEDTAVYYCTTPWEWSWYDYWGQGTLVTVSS
VL: B1 VL with A2T, E40Q, F46P, A80V, S95A
notes: IgG
B13: 16D5 IgG variant S35H/K53A (HC/LC) (antibody, V domains shown)
VH: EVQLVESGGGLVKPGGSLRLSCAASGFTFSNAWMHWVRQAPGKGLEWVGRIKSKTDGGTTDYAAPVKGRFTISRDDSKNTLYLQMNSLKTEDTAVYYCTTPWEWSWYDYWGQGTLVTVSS
VL: B1 VL with A2T, E40Q, F46P, K55A, A80V
notes: IgG
B14: 19E5 Fab (Fab, V domains shown)
VH: B1 VH with N99G, Y100E, Y101W, L102R, F103R, S104Y
VL: B1 VL
notes: bacterial Fab
B15: 15H7 Fab (Fab, V domains shown)
VH: B1 VH
VL: B1 VL
notes: bacterial Fab

Target: T1, recombinant biotinylated monomeric Fc fusion of human Folate Receptor 3 (hu FolR3 ECD-AcTev-Fcknob-Avi tag … (human, UniProt P0DOX5 223-449 = IgG part, biotin on the C-terminal Avi tag))
T1 construct: also called FolR3-Fc
Assay: SPR Biacore, single injection on immobilized antigen-Fc
Method: (§1) Binding of FolR1 binders as IgG or in the T-cell bispecific format to different recombinant folate receptors (human FolR1, 2 and 3, murine FolR1 and cynomolgus FolR1; all as Fc fusions) was assessed by surface plasmon resonance (SPR). All SPR experiments were performed on a Biacore T200 at 25° C. with HBS-EP as running buffer (0.01 M HEPES pH 7.4, 0.15 M NaCl, 3 mM EDTA, 0.005% Surfactant P20, Biacore, Freiburg/Germany).
(§2) First the anti-FolR1 IgGs were analyzed by single injections (Table 1) to characterize their crossreactivity (to human, murine and cyno FolR1) and specificity (to human FolR1, human FolR2, human FolR3). Recombinant biotinylated monomeric Fc fusions of human, cynomolgus and murine Folate Receptor 1 (FolR1-Fc) or human Folate Receptor 2 and 3 (FolR2-Fc, FolR3-Fc) were directly coupled on a SA chip using the standard coupling instruction (Biacore, Freiburg/Germany). The immobilization level was about 300-400 RU. The IgGs were injected for 60 seconds at a concentration of 500 nM.

| binding result | Binder |
| --- | --- |
| no binding (tested: 500 nM) | B1 |
| no binding (tested: 500 nM) | B2 |
| no binding (tested: 500 nM) | B3 |
| no binding (tested: 500 nM) | B4 |

Target: T2, recombinant biotinylated monomeric Fc fusion of human Folate Receptor 2 (hu FolR2 ECD-AcTev-Fcknob-Avi tag … (human, UniProt P0DOX5 223-449 = IgG part, biotin on the C-terminal Avi tag))
T2 construct: also called FolR2-Fc
Assay: as above
Method: as §1, §2

| binding result | Binder |
| --- | --- |
| no binding (tested: 500 nM) | B1 |
| no binding (tested: 500 nM) | B2 |
| no binding (tested: 500 nM) | B3 |
| no binding (tested: 500 nM) | B4 |

Target: T3, recombinant biotinylated monomeric Fc fusion of human Folate Receptor 1 (huFolR1 ECD-AcTev-Fcknob-Avi tag … (human, UniProt P0DOX5 223-449 = IgG part, biotin on the C-terminal Avi tag))
T3 construct: also called huFolR1-Fc; human FolR1-Fc
Assay: SPR Biacore, affinity (monovalent), antibody captured via anti-Fab
Method: The affinity of the interaction between the anti-FolR1 IgGs or the T cell bispecifics and the recombinant folate receptors was determined as described below (Table 42).
For affinity measurement, direct coupling of around 10000 resonance units (RU) of the anti-human Fab specific antibody (Fab capture kit, GE Healthcare) was performed on a CM5 chip at pH 5.0 using the standard amine coupling kit (GE Healthcare). Anti-FolR1 IgGs or T cell bispecifics were captured at 200 nM with a flow rate of 10 ul/min for 40 sec, the reference flow cell was left without capture. Dilution series (12.35 to 3000 nM) of human Folate Receptor 1 Fc fusion were passed on all flow cells at 30 μl/min for 240 sec to record the association phase. The dissociation phase was monitored for 300 s and triggered by switching from the sample solution to HBS-EP. The chip surface was regenerated after every cycle using a double injection of 60 sec 10 mM Glycine-HCl pH 1.5. Bulk refractive index differences were corrected for by subtracting the response obtained on the reference flow cell 1. The affinity constants for the interactions were derived from the rate constants by fitting to a 1:1 Langmuir binding using the Bia Evaluation software (GE Healthcare).

| Kd [µM] | koff [s⁻¹] | kon [M⁻¹ s⁻¹] | Binder |
| --- | --- | --- | --- |
| 1.2 | 0.0113 | 8960 | B5 |
| 0.55 | 0.00544 | 9950 | B6 |
| 1.8 | 0.0245 | 13500 | B7 |
| 1.9 | 0.0174 | 9190 | B8 |
| 0.42 | 0.0172 | 40500 | B9 |
| 0.78 | 0.0123 | 15700 | B10 |
| 1.3 | 0.0112 | 8430 | B11 |
| 0.76 | 0.00799 | 10500 | B12 |

Target: T4, recombinant biotinylated monomeric Fc fusion of cynomolgus Folate Receptor 1 (cy FolR1 ECD-AcTev-Fcknob-Avi … (cynomolgus, UniProt P0DOX5 223-449 = IgG part, biotin on the C-terminal Avi tag))
T4 construct: also called cyFolR1-Fc; cyno FolR1
Assay: SPR Biacore, avidity (bivalent, apparent KD), antigen-Fc on SA chip
Method: (§3) The avidity of the interaction between the anti-FolR1 IgGs or T cell bispecifics and the recombinant folate receptors was determined as described below (Table 41).
(§4) Recombinant biotinylated monomeric Fc fusions of human, cynomolgus and murine Folate Receptor 1 (FolR1-Fc) were directly coupled on a SA chip using the standard coupling instruction (Biacore, Freiburg/Germany). The immobilization level was about 300. […] The dissociation was monitored for 240 or 600 seconds. Bulk refractive index differences were corrected for by subtracting the response obtained on reference flow cell immobilized with recombinant biotinylated murine IL2 receptor Fc fusion. The binding curves resulting from the bivalent binding of the IgG or T cell bispecifics were approximated to a 1:1 Langmuir binding (even though it is a 1:2 binding) and fitted with that model to get an apparent KD representing the avidity of the bivalent binding. The apparent avidity constants for the interactions were derived from the rate constants of the fitting using the Bia Evaluation software (GE Healthcare). For low affinity kinetics with association and dissociation phases too fast to be fitted by the 1:1 Langmuir binding model, the steady state analysis model was applied using the Bia Evaluation software (GE Healthcare). The steady state analysis gives the KD of the binding reaction at equilibrium.

| Kd [µM] | koff [s⁻¹] | kon [M⁻¹ s⁻¹] | Binder |
| --- | --- | --- | --- |
| 0.055 | 0.0124 | 223000 | B5 |
| 0.01 | 0.00211 | 173000 | B6 |
| 0.08 | 0.0455 | 550000 | B7 |
| 0.08 | 0.0328 | 393000 | B8 |
| 0.03 | 0.0174 | 625000 | B9 |
| 1.1 | 0.0404 | 34700 | B13 |
| 0.02 | 0.0078 | 439000 | B10 |
| 0.11 | 0.0677 | 612000 | B11 |
| 0.02 | 0.00622 | 358000 | B12 |

Target: T3, recombinant biotinylated monomeric Fc …
Assay: as above
Method: as §3, §4

| Kd [µM] | koff [s⁻¹] | kon [M⁻¹ s⁻¹] | Binder |
| --- | --- | --- | --- |
| 0.04 | 0.00568 | 132000 | B5 |
| 0.02 | 0.00213 | 129000 | B6 |
| 0.06 | 0.0197 | 328000 | B7 |
| 0.06 | 0.0115 | 190000 | B8 |
| 0.03 | 0.0189 | 655000 | B9 |
| 1.4 | 0.0291 | 21000 | B13 |
| 0.03 | 0.00323 | 125000 | B10 |
| 0.09 | 0.022 | 243000 | B11 |
| 0.02 | 0.00306 | 152000 | B12 |

Target: T4, recombinant biotinylated monomeric Fc …
Assay: SPR ProteOn, Fab analyte on immobilized antigen-Fc
Method: (§5) Immobilization of antigens (ligand): Recombinant antigens were diluted with PBST (10 mM phosphate, 150 mM sodium chloride pH 7.4, 0.005% Tween 20) to 10 μg/ml, then injected at 30 μl/minute in vertical orientation. Injection of analytes: For ‘one-shot kinetics’ measurements, injection direction was changed to horizontal orientation, two-fold dilution series of purified Fab (varying concentration ranges) were injected simultaneously along separate channels 1-5, with association times of 200 s, and dissociation times of 600 s. Buffer (PBST) was injected along the sixth channel to provide an “in-line” blank for referencing. Association rate constants (kₒₙ) and dissociation rate constants (koff) were calculated using a simple one-to-one Langmuir binding model in ProteOn Manager v3.1 software by simultaneously fitting the association and dissociation sensorgrams. The equilibrium dissociation constant (KD) was calculated as the ratio koff/kₒₙ.

| Kd [µM] | Binder |
| --- | --- |
| 0.276 | B14 |
| 0.0725 | B15 |

Target: T1, recombinant biotinylated monomeric Fc …
Assay: SPR ProteOn, Fab analyte on immobilized antigen-Fc
Method: as §5

| binding result | Binder |
| --- | --- |
| no binding | B15 |

Target: T2, recombinant biotinylated monomeric Fc …
Assay: SPR ProteOn, Fab analyte on immobilized antigen-Fc
Method: as §5

| binding result | Binder |
| --- | --- |
| no binding | B15 |

Source: US20220220224A1 (Hoffmann-La Roche, published 2022)
